Laboratory results reported in patent US20220267441A1 (VOR BIOPHARMA, published 2022).
Like-named read-outs stand apart in the source and are kept apart here.

Tests used:
[1] = target: T1, cynomolgus CD45 on live cells (primary cynomolgus PBMCs) (cynomolgus monkey); experiment: flow cytometry on PBMCs; cyno EC50 against human EC50
T1 construct: Endogenous CD45 on PBMCs; also called cyno CD45; Cyno PBMC
T1 chain: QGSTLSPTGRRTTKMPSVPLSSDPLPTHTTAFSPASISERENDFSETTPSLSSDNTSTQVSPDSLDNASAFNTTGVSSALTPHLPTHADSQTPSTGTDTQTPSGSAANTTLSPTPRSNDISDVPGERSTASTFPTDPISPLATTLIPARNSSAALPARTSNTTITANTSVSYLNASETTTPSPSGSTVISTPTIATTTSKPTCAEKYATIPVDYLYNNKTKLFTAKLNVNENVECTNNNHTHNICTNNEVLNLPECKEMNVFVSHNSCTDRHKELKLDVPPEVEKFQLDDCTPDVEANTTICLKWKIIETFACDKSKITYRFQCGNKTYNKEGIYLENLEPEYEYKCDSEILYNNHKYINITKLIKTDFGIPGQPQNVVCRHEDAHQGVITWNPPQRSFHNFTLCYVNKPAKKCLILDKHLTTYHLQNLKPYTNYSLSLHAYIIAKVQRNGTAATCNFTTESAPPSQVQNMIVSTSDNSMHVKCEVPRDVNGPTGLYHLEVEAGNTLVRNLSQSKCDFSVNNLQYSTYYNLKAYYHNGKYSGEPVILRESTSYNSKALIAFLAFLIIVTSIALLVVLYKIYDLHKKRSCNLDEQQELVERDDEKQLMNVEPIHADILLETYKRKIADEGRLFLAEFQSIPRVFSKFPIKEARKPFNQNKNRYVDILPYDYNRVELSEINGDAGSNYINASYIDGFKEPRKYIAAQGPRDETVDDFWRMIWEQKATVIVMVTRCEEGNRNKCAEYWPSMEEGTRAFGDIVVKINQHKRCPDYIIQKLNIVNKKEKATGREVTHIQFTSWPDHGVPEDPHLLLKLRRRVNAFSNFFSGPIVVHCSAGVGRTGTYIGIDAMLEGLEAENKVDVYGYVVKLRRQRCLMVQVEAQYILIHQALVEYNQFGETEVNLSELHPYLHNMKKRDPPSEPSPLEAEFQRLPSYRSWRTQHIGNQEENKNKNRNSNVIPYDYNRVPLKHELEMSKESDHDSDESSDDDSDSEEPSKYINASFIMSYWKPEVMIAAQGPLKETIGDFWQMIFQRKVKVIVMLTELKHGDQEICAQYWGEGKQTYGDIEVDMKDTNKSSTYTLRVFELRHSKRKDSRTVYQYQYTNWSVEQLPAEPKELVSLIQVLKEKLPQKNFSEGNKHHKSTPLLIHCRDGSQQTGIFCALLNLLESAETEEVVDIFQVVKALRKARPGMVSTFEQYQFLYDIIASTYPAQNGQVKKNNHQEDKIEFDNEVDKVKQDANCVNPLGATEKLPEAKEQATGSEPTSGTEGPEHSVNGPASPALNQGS

[2] = target: T1, cynomolgus CD45 on live cells (primary …); experiment: as above
[3] = target: T2, human CD45 on live cells (REH-1 cells, primary human PBMCs) (human, UniProt P08575 26-1306); experiment: flow cytometry on human PBMCs, overnight 37 C, AF488 anti-human IgG
T2 construct: Endogenous CD45
T2 sequence: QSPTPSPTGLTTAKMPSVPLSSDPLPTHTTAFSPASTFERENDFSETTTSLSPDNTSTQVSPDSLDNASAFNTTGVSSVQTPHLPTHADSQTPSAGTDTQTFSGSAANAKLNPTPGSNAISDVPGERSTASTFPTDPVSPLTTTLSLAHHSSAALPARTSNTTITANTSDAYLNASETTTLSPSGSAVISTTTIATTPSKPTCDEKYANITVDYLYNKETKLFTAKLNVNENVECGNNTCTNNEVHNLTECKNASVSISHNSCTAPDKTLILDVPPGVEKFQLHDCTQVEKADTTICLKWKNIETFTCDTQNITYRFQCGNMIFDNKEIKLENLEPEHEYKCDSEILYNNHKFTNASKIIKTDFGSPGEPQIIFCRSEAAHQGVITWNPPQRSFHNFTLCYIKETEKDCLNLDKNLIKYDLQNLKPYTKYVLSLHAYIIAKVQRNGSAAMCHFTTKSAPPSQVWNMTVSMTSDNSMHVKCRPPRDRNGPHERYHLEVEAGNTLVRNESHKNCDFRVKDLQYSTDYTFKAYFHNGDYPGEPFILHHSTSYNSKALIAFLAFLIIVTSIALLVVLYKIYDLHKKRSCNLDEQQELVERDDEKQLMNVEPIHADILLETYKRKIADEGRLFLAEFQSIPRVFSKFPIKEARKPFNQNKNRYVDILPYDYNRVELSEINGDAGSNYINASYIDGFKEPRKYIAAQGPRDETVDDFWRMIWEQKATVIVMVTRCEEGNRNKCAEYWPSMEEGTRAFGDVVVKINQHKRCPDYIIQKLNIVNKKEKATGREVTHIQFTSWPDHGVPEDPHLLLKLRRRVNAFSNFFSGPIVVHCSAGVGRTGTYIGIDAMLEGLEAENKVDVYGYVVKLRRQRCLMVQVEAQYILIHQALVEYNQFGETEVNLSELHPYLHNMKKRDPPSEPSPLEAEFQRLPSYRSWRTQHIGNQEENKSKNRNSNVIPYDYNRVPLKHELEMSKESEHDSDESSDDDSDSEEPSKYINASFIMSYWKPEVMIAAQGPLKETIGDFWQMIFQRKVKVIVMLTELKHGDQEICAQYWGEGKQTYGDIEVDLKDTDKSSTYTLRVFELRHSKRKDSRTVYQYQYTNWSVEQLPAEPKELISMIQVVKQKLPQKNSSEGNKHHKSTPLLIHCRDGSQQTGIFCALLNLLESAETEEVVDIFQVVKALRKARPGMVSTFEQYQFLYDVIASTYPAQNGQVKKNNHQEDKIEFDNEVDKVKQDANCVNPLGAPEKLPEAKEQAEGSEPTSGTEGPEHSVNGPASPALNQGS

[4] = target: T2, human CD45 on live cells (REH-1 cells, …); experiment: as above; remark: listed apart in the source
[5] = target: T3, purified human CD45 ectodomain (human CD45RABC antigen) (human, UniProt P08575 26-577); experiment: BLI (Octet Red96), Table 11; the sentence does not name the species of CD45
T3 construct: also called hCD45
T3 sequence: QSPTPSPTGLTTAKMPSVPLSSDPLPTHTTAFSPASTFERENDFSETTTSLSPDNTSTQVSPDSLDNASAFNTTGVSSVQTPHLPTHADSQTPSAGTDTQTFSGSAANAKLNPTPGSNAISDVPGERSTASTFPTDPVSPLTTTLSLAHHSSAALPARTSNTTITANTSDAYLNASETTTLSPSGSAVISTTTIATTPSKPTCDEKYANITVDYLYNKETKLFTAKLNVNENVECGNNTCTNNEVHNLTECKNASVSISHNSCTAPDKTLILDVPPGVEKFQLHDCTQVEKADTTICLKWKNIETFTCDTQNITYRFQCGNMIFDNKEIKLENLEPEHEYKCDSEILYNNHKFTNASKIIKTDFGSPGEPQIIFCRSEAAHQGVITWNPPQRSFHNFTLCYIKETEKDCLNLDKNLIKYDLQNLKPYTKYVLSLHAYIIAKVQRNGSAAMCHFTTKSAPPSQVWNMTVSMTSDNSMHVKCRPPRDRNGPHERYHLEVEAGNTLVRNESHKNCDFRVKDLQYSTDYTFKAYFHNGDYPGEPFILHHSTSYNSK

[6] = target: T1, cynomolgus CD45 on live cells (primary …); experiment: flow cytometry on cynomolgus PBMCs, overnight 37 C, AF488 anti-human IgG
[7] = target: T1, cynomolgus CD45 on live cells (primary …); experiment: as above
[8] = target: T3, purified human CD45 ectodomain (human …); experiment: BLI (Octet Red96), antibody on anti-human Fc sensor, 100 nM human CD45 ectodomain, 1:1 fit

B1: Antibody C (AbC) (antibody, IgG1, V domains shown)
VH: EVQLVESGGGLVQPGGSLRLSCAASGFTFNNYWMTWVRQAPGKGLEWVSSISSSGGSIYYPDSVKDRFTISRDNAKNSLYLQMNSLRAEDMAVYYCARLYYYDGGGDAWGQGTLVTVSS
VL: GIQMTQSPSSLSASVGDRVTITCKASQDINKYLDWYQQKPGKAPKLLIYNTNNLHTGIPSRFSGSGSGTDYTLTISSLQPEDFATYYCLQHISRWTFGGGTKVEIK
notes: also called humanized clone AbC
[1]
  Fold Cyno vs Human (EC50): 1.7 fold
[2]
  Fold Cyno v/s Human (EC50): 2.1 fold
[3]
  EC50: 0.51 nM
[4]
  EC50: 0.64 nM
[5]
  fold improved affinity over the parent clone C: > 4 fold
[6]
  EC50: 0.88 nM
[7]
  EC50: 1.34 nM
[8]
  Kd: 2.93 nM
  koff: 0.000149 s⁻¹
  kon: 50800 M⁻¹ s⁻¹
